# Assay results taken from patent publication US20210171970A1 (CURATORS OF THE UNIVERSITY OF MISSOURI, published 2021).
# T1: beta-carboxyltransferase (β-CT) subunit of hetACCase, ATCG00500, Arabidopsis thaliana (Arabidopsis thaliana, UniProt P56765 1-488)
# T1 construct: Native protein in chloroplast lysate
# T1 sequence (looked up): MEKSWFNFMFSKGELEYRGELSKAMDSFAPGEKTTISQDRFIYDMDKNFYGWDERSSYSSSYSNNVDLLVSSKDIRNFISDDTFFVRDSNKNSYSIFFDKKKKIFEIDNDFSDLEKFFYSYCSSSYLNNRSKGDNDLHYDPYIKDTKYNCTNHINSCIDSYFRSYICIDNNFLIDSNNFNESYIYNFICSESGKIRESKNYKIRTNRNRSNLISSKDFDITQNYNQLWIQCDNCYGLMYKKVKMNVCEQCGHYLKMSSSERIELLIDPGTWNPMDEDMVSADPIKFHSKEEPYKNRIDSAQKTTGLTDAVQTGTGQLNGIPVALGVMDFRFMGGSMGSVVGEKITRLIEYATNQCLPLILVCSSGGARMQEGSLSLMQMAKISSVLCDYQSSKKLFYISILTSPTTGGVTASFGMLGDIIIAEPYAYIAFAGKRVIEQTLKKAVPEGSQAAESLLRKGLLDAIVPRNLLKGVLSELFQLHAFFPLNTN
# Legend:
# [1] = molecular target: alpha-carboxyltransferase (α-CT) subunit of hetACCase, AT2G38040, Arabidopsis thaliana (Arabidopsis thaliana) (UniProt Q9LD43); assay: co-IP from A. thaliana chloroplast lysate with anti-α-CT polyclonal antibody, LC-MS/MS
# Sequence of alpha-carboxyltransferase (α-CT) subunit of hetACCase, AT2G38040, Arabidopsis thaliana (Arabidopsis thaliana) (Q9LD43 55-769): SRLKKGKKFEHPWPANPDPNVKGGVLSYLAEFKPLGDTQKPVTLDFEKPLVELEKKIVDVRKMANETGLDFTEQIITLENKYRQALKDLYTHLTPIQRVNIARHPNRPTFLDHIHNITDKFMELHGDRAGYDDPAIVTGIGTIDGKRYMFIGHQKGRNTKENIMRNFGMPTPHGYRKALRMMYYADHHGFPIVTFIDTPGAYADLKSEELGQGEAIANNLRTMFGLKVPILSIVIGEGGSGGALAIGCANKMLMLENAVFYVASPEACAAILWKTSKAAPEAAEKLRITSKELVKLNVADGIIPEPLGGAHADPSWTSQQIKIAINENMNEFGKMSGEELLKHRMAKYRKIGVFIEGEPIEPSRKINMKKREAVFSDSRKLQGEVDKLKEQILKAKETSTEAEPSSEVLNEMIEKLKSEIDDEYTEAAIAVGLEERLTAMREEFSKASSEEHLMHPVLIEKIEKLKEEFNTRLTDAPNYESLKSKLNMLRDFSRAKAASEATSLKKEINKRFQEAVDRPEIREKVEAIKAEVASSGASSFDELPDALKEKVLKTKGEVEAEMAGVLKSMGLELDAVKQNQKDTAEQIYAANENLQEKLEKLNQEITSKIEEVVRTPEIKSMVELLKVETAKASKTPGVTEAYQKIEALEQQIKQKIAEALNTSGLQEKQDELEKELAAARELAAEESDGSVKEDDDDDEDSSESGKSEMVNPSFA
# [2] = molecular target: heteromeric acetyl-coenzyme A carboxylase (hetACCase) of Arabidopsis thaliana, in silique or leaf extracts (Arabidopsis thaliana) (UniProt O04983); assay: inhibition of ACCase activity in 20-day-old A. thaliana leaf extracts with increasing recombinant BADC1, polynomial fit
# [3] = molecular target: T1, beta-carboxyltransferase (β-CT) subunit …; assay: co-IP from A. thaliana chloroplast lysate with anti-BCCP2 polyclonal antibody, LC-MS/MS
# Description: For co-innmunoprecipitation of hetACCase from Arabidopsis seedlings, crude chloroplasts were isolated from approximately 10 g 14-d-old A. thaliana seedlings after 1 h light exposure. Fresh leaves were homogenized in ice-cold grinding buffer (50 mM HEPES-KOH pH 8.0, 330 mM sorbitol, 1.5 mM MnCl₂, 2 mM MgCl₂, 2 mM EDTA, 0.1% (w/v) BSA) using a Waring blender. Homogenate was filtered through two layers of Miracloth and centrifuged at 2,600 g at 4° C. for 20 min. Chloroplasts were lysed for 30 min in ice-cold lysis buffer (50 mM HEPES-KOH pH 8.0, 10% (v/v) glycerol, 0.5% (v/v) Triton X-100). Lysates were homogenized ten times in a Dounce homogenizer on ice and then centrifuged at 30 k g for 20 min at 4° C. Then, 1 mL of the 30 k g supernatant was added to 25 μL Protein A-Sepharose beads (Sigma Aldrich) either uncoated (control) or coated with antibody specific for α-CT, BCCP, BADC1, or BADC2. Co-immunoprecipations (co-IP) were carried out at 4° C. for 3 h with gentle mixing. The heads were washed twice with 1 mL ice-cold lysis buffer and precipitated protein was eluted by adding 30 μL 6×SDS sample buffer (350 mM Tris-HCl, pH 6.8, 350 mM SDS, 30% (v/v) glycerol, 100 mM dithiothreitol, 2.5 mM bromophenol blue) and heating at 65° C. for 10 min. Eluted proteins were resolved on 10% SDS-PAGE gels for western and mass spectrometry analysis. […]
# [4] = molecular target: the molecule itself; assay: intact mass analysis and non-reducing SDS-PAGE of purified recombinant protein (only a monomer band)
Binder,replicates of the co-IP in which the protein was present (of seven) [1],Ki [2],binding result [3],binding result [4]
"BADC1 (biotin/lipoyl attachment domain-containing protein, AT3G56130), Arabidopsis thaliana (protein) AKAAKSSTTTISDGSSDASVSDGKKTVRRITFPKEVEALVHEMCDETEVAVLQLKVGDFEMNLKRKIGAATNPIPVADISPTVAPPIPSEPMNKSASSAPSPSQAKPSSEKVSPFKNTSYGKPAKLAALEASGSTNYVLVTSPAVGKFQRSRTVKGKKQSPSCKEGDAIKEGQVIGYLHQLGTELPVTSDVAGEVLKLLSDDGDSVGYGDPLVAVLPSFHDINIQ",1 replicates,4.3 µM,,
"BCCP2 (biotin carboxyl carrier protein 2 subunit of hetACCase, AT5G15530), Arabidopsis thaliana (other, UniProt Q9LLC1 88-255, looked up, biotinylated (residue not given), Native protein in chloroplast lysate for the co-IPs; Recombinant and two-hybrid constructs lack the TargetP-predicted transit peptide; also called AtBCCP2; NP_568316.1) EFMAKVSGLLKLVDSKDIVELELKQLDCEIVIRKKEALQQAVPPAPVYHSMPPVMADFSMPPAQPVALPPSPTPTSTPATAKPTSAPSSSHPPLKSPMAGTFYRSPGPGEPPFVKVGDKVQKGQIVCIIEAMKLMNEIEAEKSGTIMELLAEDGKPVSVDTPLFVIAP",,,no binding,
"BADC2 (Single hybrid motif protein, AT1G52670), Arabidopsis thaliana (other, Native protein in chloroplast lysate for the co-IPs; Recombinant and two-hybrid constructs lack the TargetP-predicted transit peptide; His-tagged or untagged in co-expression; also called AtBADC2; NP_564612.1) TTLRSVKAIQLSTVPPAETEAIADVKDSDETKSTVVNTHLMPKSSEVEALISEITDSSSIAEFELKLGGFRLYVARKLTDESSPPPQQIQPVVAASATPEGVHTNGSATSSSLAITKTSSSSADRPQTLANKAADQGLVILQSPTVGYFRRSKTIKGKRTPTICKEKDIVKEGQVLCYIEQLGGQIPVESDVSGEIVKILREDGEPVGYNDALITVLPSFPGIKKLQ",2 replicates,,,no binding
